Laboratory results reported in publication PMC10980349 (The Plant Cell, 2023).

B1: SPR2(1 to 500)-GFP (domain or fragment)
chain: MSTPTTSGSAAKPTRPARSSSLATRSCSNSGSLTSFQAMVELKQKILTSISKLADRDTYQIAVEDLEKTIQSLTPETLPMFLNCLYDSCSDPKPAVKKECLHLLSYVCSLHCDSTAAHLTKIIAQIVKRLKDSDSGVRDACRDTIGALSGIYLKGKEEGTNTGSASLAVGLFVKPLFEAMGEQNKVVQSGASMCMARMVESAASPPVTSFQKLCPRICKLLSNSSFLAKASLLPVVSSLSQVGAIAPQSLESLLESIHDCLGSTDWVTRKAAAETLTALASHSSGLIKEKTDSTITVLETCRFDKIKPVRESVTEALQLWKKISGKYVDGASDDSKLSASEQLGSEKNGEKRSNLADLMKKEASDGSTLSPDSASKGKGCFPEKAVGLLKKKAPVLSDKDFNPEFFQRLERRQSVEVVVPRRCKNNDEEESGLDDLNAMGSSNRLKNTQADDKQVKGRFDGNGSQARTSGDDKAGVVNGKETPGHHAPVSNTDNQSEGSF
B2: full-length SPR2 (SEC-MALS sample) (natural protein, Arabidopsis thaliana, UniProt Q9T041 1-864, looked up)
chain: MSTPTTSGSAAKPTRPARSSSLATRSCSNSGSLTSFQAMVELKQKILTSISKLADRDTYQIAVEDLEKTIQSLTPETLPMFLNCLYDSCSDPKPAVKKECLHLLSYVCSLHCDSTAAHLTKIIAQIVKRLKDSDSGVRDACRDTIGALSGIYLKGKEEGTNTGSASLAVGLFVKPLFEAMGEQNKVVQSGASMCMARMVESAASPPVTSFQKLCPRICKLLSNSSFLAKASLLPVVSSLSQVGAIAPQSLESLLESIHDCLGSTDWVTRKAAAETLTALASHSSGLIKEKTDSTITVLETCRFDKIKPVRESVTEALQLWKKISGKYVDGASDDSKLSASEQLGSEKNGEKRSNLADLMKKEASDGSTLSPDSASKGKGCFPEKAVGLLKKKAPVLSDKDFNPEFFQRLERRQSVEVVVPRRCKNNDEEESGLDDLNAMGSSNRLKNTQADDKQVKGRFDGNGSQARTSGDDKAGVVNGKETPGHHAPVSNTDNQSEGSFTSNRGNWSAIQRQLLQLERQQTNLMNMLQEFIGGSHDSMVTLEGRVRGLERIVEDMARDLSISSGRRANLTAGFGKYNSFANYPTGKYNGRAPGERGSQTDGAMRGRMWNSDMADDWFIPPHAASRNGQAGPRRSPRSEQYENEHMGNGRRGWDNKASGTIRFGEGPSARSVWQASKDEATLEAIRVAGEDGAVPRPTRVAVAPEAEAMGDDDNEGQERDPIWVSWSNAMHSLRVGDIDAAYAEVLCAGDQHLVIKLMDKTGPSLDQMSNEIANEALNFISQFLLDHSLYDICLSWSQQLLELVLQDGADTFGVPMELKTEILYNLQDACSTMDPPEDWEGPAPEQLVVQLASVWEIDLQQFDK

Experiments:
[1] = biological target: microtubules assembled from porcine tubulin (porcine) (UniProt P02550); assay: co-sedimentation
SEC-MALS = biological target: the molecule itself; assay: SEC-MALS

| Binder | Kd [1] [µM] | stoichiometry N (SEC-MALS) |
| --- | --- | --- |
| B1 | 17.4 |  |
| B2 |  | 4 |
